Measured values from the nanobody polyreactivity screen of Harvey et al. (2022).

assay: yeast display, Sf9 membrane polyspecificity reagent, FACS + sequencing; frameworks hold sequencing errors
Procedure, shortened: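 After 36–48 hours of galactose induction, yeast (Saccharomyces cerevisiae BJ5465) displaying a synthetic nanobody library were stained at 4 °C for 1 hour with 10% biotinylated, detergent-solubilized Sf9 membrane reagent. Streptavidin microbeads enriched the stained cells before FACS sorting into low and high (top ~1%) gates on anti-HA and streptavidin fluorescence. Each clone's polyreactivity label reflects its gate of origin.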

Sequence | polyreactivity (PSR sort gate)
QVQLVESGGGLVQAGGSLSLSCAASGFIFYGYAMGWYRQAPGKEREIVAAISGRGDRTYYADSVKGRFTISRDNAKNTVYLQMNSLNPEDTAVYYCAALQLRYSGALWYDYWGQGTQVTVSS | high polyreactivity
QVQLVESGGGLVQAGGSLSLSCAASGFILDYNTKGWYRQAPGKEREVVAAISSSGDTTYYADSVKGRFTISRDNAKYTVYLQMNSLKPEDTAVYYCAREYGDGYEYWVQGTQVTVSS | low polyreactivity
QVQLVESGGGLVQAGGSLSLSCAASGFTFAKYAMGWYRQAPGKERELVATISWSGGTTSYADSVKGRFTISRDNAKNTVYLQMNSLKPEDTAVYYCAALRYADYDYWGQGTQVTVSS | high polyreactivity
QVQLVESGGGLVQAGGSLSLSCAASGFTFGTNAMGWYRQAPGKERELVAAISSRGGSTYYADSVKGRFTISRDNAKNTVYLEMNSLKPEDTAVYYCARRVAGRQHEYGYWGLGTQVTVSS | high polyreactivity
QVQLVESGGGLVQAGGSLSLSCAASGFTFSRYAMGWYRQAPGKERELVAAISDDGGSTYYADSVKGRFTISRDNAKNTVYLQMNSLKPEDTAVYYCAARFYWSYGYWGQGTQVTVSS | high polyreactivity
QVQLVESGGGLVQAGGSLSLSCAASGGTFSRYGMGWYRQAPGKEREMVAAISRSGGSTYYADSVKWRFTISRDNAKNTVYLQMNSLKPEDTAVYYCAAKLPIPYTTGRYAAMDYWGQGTQVTVSS | high polyreactivity
QVQLVESGGGLVQAGGSLSLSCAASGGTFTFYAMGWYRQAPGKERELVATINWSGGSTYYADSVKGRFTISRDNAKNTVYIQMNCLKPEDSAVYYCNAAWAYKSVEYWGQGTQVTVSS | low polyreactivity
QVQLVESGGGLVQAGGSLSLSCAASGIIFIYYGMGWYRQAPGKERELVAAISRSGGRTYYADSVKGRFTISRDNAKNTVYLQMNSLKPEDTAVYYCATTYTPTGFDYWGQGTQVTVSS | high polyreactivity
QVQLVESGGGLVQAGGSLSLSCAASGIIFYDYAMGWYRQAPGKERELVAAITSGGSTNYADSVKGRFTISRDNAKNTVYLLMNRLKPEVTAVYYCAATYWSWISLRFYWGLGTQVTVSS | low polyreactivity
QVQLVESGGGLVQAGGSLSLSCAASGIIFYYYAMGWYRQAPGKERELVAAISTSGGRTYYADSVKGRFTISRDNAKNTVYLQMNSMKPEDTAVYYCAADYLKGEEDYWGQGTQVTVSS | low polyreactivity
QVQLVESGGGLVQAGGSLSLSCAASGIIIRRYAMGWYRQAPRKERELVATITWSGGSTYYADSVKGRFTISRDNAKNTVYLQMNSLKPEDTAVDYCAKLTSYRGRYNYWGQGTQVTVSS | high polyreactivity
QVQLVESGGGLVQAGGSLSLSCAASGIISTYYVMGWYRQAPGKERELVAAITGGDSSTYYADSVKGRFTISRDNAKNTVYLQMNSLKPEDTAVYYCAKEYYYARGARYDYWGQGTQVTVSS | low polyreactivity
QVQLVESGGGLVQAGGSLSLSCAASGNIVPSYVMGWYRQAPGKERELVAAITWNGGSTYYADSVKGRFTISRDNAKNTVYLQMNSLKPEDTAVYDCATSGPRLLRYYSSSSPSYDYWGQGTQVTVSS | low polyreactivity
QVQLVESGGGLVQAGGSLSLSCAASGRIFATNAMGWYRQAPGKERELVATITRSDGRTYYAVSVKGRFTISRDNAMNSVYLEMNSLKPEDTAVYFCAAYYSDTEPGYREYDYWGQGTQVTLSS | low polyreactivity
QVQLVESGGGLVQAGGSLSLSCAASGRIFRYNAMGWYRQAPGKERELVAGINGRSGSTTYADSVKGRFTISRDNAKNTVYLQMNSLKPEDTAVYYCAIVYGGYHYAFRSSRGMGYWGQGTQVTVSS | high polyreactivity
QVQLVESGGGLVQAGGSLSLSCAASGRLFARNTMGWYRQAPGKEREFVAAIDRRGGSTYYADSVKGRFTISRDNAKNTVYLQMNSLKPEDTAVYYCNKDTRRSGRMDSWGQGTEVTVSS | low polyreactivity
QVQLVESGGGLVQAGGSLSLSCAASGRNFYANTMGWYRQAPGKERELVASISYSSGSTYADSVKGRFTISRDNAKNTVYLQMNSLKPEDTAVYYCAARTYWYPRRPIYDYWGQGTQVTVSS | high polyreactivity
QVQLVESGGGLVQAGGSLSLSCAASGRTFGPYAMGWYRKAPGKERELVAVISGRGTSTYYADSVKGRFTISRDNAKNTVYLQMNSLKPEDTAVYYCNADYGSWYWGFDYWGQGTQVTVSS | low polyreactivity
QVQLVESGGGLVQAGGSLSLSCAASGRTFSSYVMGWYRPAPGNERELVAAITQSSSRTYYADSVKGRFTISRDNAKNTVYLQMNSLKRVYTAVYYCNAALYPYLQYYYWGLGTQVTVSS | low polyreactivity
QVQLVESGGGLVQAGGSLSLSCAASGRTLIRNAMGWYRQAPGKGRELVAAINSGGITNYADSVKGRFTISRDNAKNTVYLQMNSLKPEDTAVYYCNDRQVLYGLYLRAYPYEYWGQGTQVTVSS | low polyreactivity
QVQLVESGGGLVQAGGSLSLSCAASGSIFWSYAMGWYRQAPGKERELVAAITTDGGTNYADSVKGRFTISRDNAKNTVYLQMNSLKPVDTAVYYCAADTDPKPRIDYTLRMDYWGHGTQVTVSS | low polyreactivity
QVQLVESGGGLVQAGGSLSLSCAASGSIFYHNAMGWYRQAPGKERELVAAITGSGGSTYYADSVKGRFTISRDNAKNTVYLQMNSLKPEDTAVYYCAAVQLYQKHQITYVAHEYWGQGTQVTVSS | low polyreactivity
QVQLVESGGGLVQAGGSLSLSCAASGSIFYSNSMGWYRQAPGKERELVAAINWRGGSTYYADSVKGRFTISRDNAKNSVYLQMNSLKPEDTAVDYCAAVYPVHLRGQYPIPKYNYWGQGTQVTVSS | low polyreactivity
QVQLVESGGGLVQAGGSLSLSCAASGSIFYVYAMGWYRQAPGKERELVASINKSGGSTYYADSVKGRFTISRDNAKNTVYLQMNSLKPEDTAVYYCAARYGWPRVGFQYPAHVGFDYWGQGTQVTVSS | low polyreactivity
QVQLVESGGGLVQAGGSLSLSCAASGSSFSLYTMGWYRQAPGKERDLVASISQSGGSTYYADSVKGRFTISRDNAKNTVYLQMNSLKPEDTAVYFWNAKGRSGTLTLYYYWGQGTQVTVSS | low polyreactivity
QVQLVESGGGLVQAGGSLSLSCAASGSTFAFNAMGWYRQAPGKERELVAAIYSDGSTDYADSVKGRFTISRDNAKNTVYLQMNSLKPEDTAVYYCAADWGWRYVLPVGWFRYGYWGQGTQVTVSS | low polyreactivity
QVQLVESGGGLVQAGGSLSLSCAASGSTFDYYAMGWYRQAPGKERELVADITYSGGSTYYADSVKGRFTISRDNAKNTVYLQMNSLKPEDTAVYYCNAYYTVYTRYDYWGQGTQVTVSS | high polyreactivity
QVQLVESGGGLVQAGGSLSLSCAASGSTFLKYTMGWYRQAPWKERELVAAISKSGGSTYYADSVKGRFTISRDNAKNTVYLQMNSLKPEDTAVYYCAKGRYWVYSYGYGYWGQGTQVTVSS | high polyreactivity
QVQLVESGGGLVQAGGSLSLSCAASGSTFNRNAMGWDRQAPGKEREFVAAITWSGGSTYYADSVKGRFTISRDNAKNTVYLQMNSLKPEDTAVYYCNADRFSSRHSYDYWGQGTQVTVSS | low polyreactivity
QVQLVESGGGLVQAGGSLSLSCAASGSTFVYNAMGWYRKAPGKERELVAAISSGGSTNYADSVKGRFTISRDNAKNTVYFQMKSLKPEDNRSEYSRYVVYDYWGQGTQVTVSS | low polyreactivity
